T1: Bfl-1, Q16548
T1 chain: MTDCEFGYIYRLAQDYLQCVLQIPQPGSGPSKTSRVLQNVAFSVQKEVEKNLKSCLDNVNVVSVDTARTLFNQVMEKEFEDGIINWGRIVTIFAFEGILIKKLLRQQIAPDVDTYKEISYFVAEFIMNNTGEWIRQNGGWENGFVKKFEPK

T2: Mcl-1, Q07820
T2 chain: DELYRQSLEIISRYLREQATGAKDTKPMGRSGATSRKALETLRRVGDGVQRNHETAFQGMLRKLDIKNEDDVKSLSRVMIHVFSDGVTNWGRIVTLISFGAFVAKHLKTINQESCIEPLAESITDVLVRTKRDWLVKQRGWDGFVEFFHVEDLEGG

B1: MFSD11 (peptide)
chain: SKEVAILCSFLLGLLDSCFNTQLLSI
B2: SPNS1 (peptide)
chain: ISSYMVLAPVFGYLLDRYNRKYLMCG
B3: PPAT (peptide)
chain: RLRQLGVAKKFGVLSDNFKGKRIVLV
B4: PROK2 (peptide)
chain: WVKSIRICTPMGKLGDSCHPLTRKVP
B5: PROK2 (peptide)
chain: WVKSIRICTPDGKLGDSCHPLTRKVP
B6: ROS1 (peptide)
chain: FGEYSGISENDILVGDDFWIPETSFI
B7: SMPD2 (peptide)
chain: PYLSKHRADRMRRLGDFLNQESFDLA
B8: SPHKAP (peptide)
chain: TSRINEVQVNLSLLLDDLLLPAQSTL
B9: SEC16A (peptide)
chain: NNNMDVESRTMATMLDTLASRGLLDA
B10: CHMP5 (peptide)
chain: ELDEDDLEAELDALLDELLADEDSSY
B11: TMEM184C (peptide)
chain: SDIRDDISEQDRHVGRTVRGHPRKKL
B12: KIF19 (peptide)
chain: KLALEQRCRELRARLRRLEETLPRRI
B13: PCNXL2 (peptide)
chain: LLDFFMVSILFSKLLDLLHKLQFVLT
B14: BBC3 (peptide)
chain: EQWAREIGAQDRRMADDLNAQYERRR
B15: IGF2R (peptide)
chain: YFKLFRASGDMRTNGDNYLYEIQLSS
B16: HUWE1 (peptide)
chain: GVMTQEVGQLDQDMGDDVYQQYRSLT
B17: MYCBP2 (peptide)
chain: AIILCNVCGNLCTDLDRFLHLHRRTK
B18: CTSL2 (peptide)
chain: SQGKHGFTMAMNAFGDMTNEEFRQMM
B19: VCAM1 (peptide)
chain: KIETTPESRYDAQIGDSVSLTCSTTG
B20: LRP1 (peptide)
chain: MRSQLGKATALAIMGDKLWWADQVSE
B21: FOXJ3 (peptide)
chain: PKKKMTLSEIYQWILDNFPYYREAGS
B22: CCDC57 (peptide)
chain: QAGPVSSGLALRKLLDRVQLLNLLVT
B23: RBL1 (peptide)
chain: WTLFVYTKGNDRMIGDDLVNSYHLLL
B24: BBC3 (peptide)
chain: EQWAREIGAQLRRMLDDLNAQYERRR
B25: SYNE1 (peptide)
chain: VTLLSEVEKMLSNFLDCVQYKEIVKN
B26: LRP1 (peptide)
chain: MRSQLGKATADAIMGDKLWWADQVSE
B27: XXXX (peptide)
chain: TAAAAYRGAHLRGRLRTVYNTFRAAA
B28: RGPD2 (peptide)
chain: PALLVHWAKCLQKMGRGLNSSYDQQE
B29: SIPA1 (peptide)
chain: TAGLRPGARLLRVCGQTLPSLRPEAA
B30: DOCK2 (peptide)
chain: SHFVACMTAIDNQMGDQHYSFYIETF
B31: CCDC68 (peptide)
chain: QASREAGAAALRNVAQRLFENYQTQS
B32: FUT8 (peptide)
chain: KKLKNLEGNELQRHLDEFLLDLGHHE

Biological target: T1, Bfl-1, Q16548
Experiment: peptide SPOT array, c-Myc-tagged receptor at 1 uM or 100 nM, anti-c-Myc-Cy3

| Binder | SPOT signal as a fraction of Bim BH3's signal on the same receptor and array |
| --- | --- |
| B1 | 0.04 |
| B2 | 0.78 |
| B3 | 0.64 |
| B4 | 0.56 |
| B5 | 0.47 |
| B6 | 0.04 |
| B7 | 0.69 |
| B8 | 0.03 |
| B9 | 0.05 |
| B10 | 0.03 |
| B11 | 0.14 |
| B12 | 1.04 |
| B13 | 0.07 |
| B14 | 0.02 |
| B15 | 0.47 |
| B16 | 0.01 |

| Binder | SPOT signal as a fraction of Bim BH3's signal on the same receptor and array |
| --- | --- |
| B17 | 0.28 |
| B18 | 0.08 |
| B19 | 0.03 |
| B20 | 0.14 |
| B21 | 0.1 |
| B22 | 0.34 |
| B23 | 0.05 |
| B24 | 0.09 |
| B25 | 0.06 |
| B26 | 0.12 |
| B27 | 1.55 |
| B28 | 0.47 |
| B29 | 0.8 |
| B30 | 0.05 |
| B31 | 0.18 |
| B32 | 0.04 |

Biological target: Bcl-xL, Q07817
Experiment: as above

Bcl-xL, Q07817, sequence (Q07817 1-209): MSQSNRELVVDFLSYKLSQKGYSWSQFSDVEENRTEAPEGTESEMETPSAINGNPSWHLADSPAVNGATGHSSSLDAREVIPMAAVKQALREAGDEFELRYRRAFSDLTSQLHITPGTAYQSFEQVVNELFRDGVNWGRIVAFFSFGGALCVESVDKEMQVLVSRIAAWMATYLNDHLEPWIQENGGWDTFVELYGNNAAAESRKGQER

| Binder | SPOT signal as a fraction of Bim BH3's signal on the same receptor and array |
| --- | --- |
| B1 | 0.09 |
| B2 | 1.11 |
| B3 | 1.65 |
| B4 | 1.07 |
| B5 | 1.01 |
| B6 | 0.07 |
| B7 | 1.3 |
| B8 | 0.05 |
| B9 | 0.04 |
| B10 | 0.06 |
| B11 | 0.45 |
| B12 | 1.14 |
| B13 | 0.1 |
| B14 | 0.05 |
| B15 | 0.41 |
| B16 | 0.02 |

| Binder | SPOT signal as a fraction of Bim BH3's signal on the same receptor and array |
| --- | --- |
| B17 | 0.51 |
| B18 | 0.08 |
| B19 | 0.05 |
| B20 | 0.22 |
| B21 | 0.15 |
| B22 | 0.74 |
| B23 | 0.08 |
| B24 | 0.19 |
| B25 | 0.11 |
| B26 | 0.17 |
| B27 | 2.37 |
| B28 | 0.89 |
| B29 | 1.22 |
| B30 | 0.08 |
| B31 | 0.36 |
| B32 | 0.08 |

Biological target: T2, Mcl-1, Q07820
Experiment: as above

| Binder | SPOT signal as a fraction of Bim BH3's signal on the same receptor and array |
| --- | --- |
| B1 | 0.05 |
| B2 | 0.73 |
| B3 | 1.04 |
| B4 | 0.81 |
| B5 | 0.75 |
| B6 | 0.04 |
| B7 | 0.71 |
| B8 | 0.04 |
| B9 | 0.03 |
| B10 | 0.03 |
| B11 | 0.13 |
| B12 | 0.72 |
| B13 | 0.08 |
| B14 | 0.07 |
| B15 | 0.43 |
| B16 | 0.01 |

| Binder | SPOT signal as a fraction of Bim BH3's signal on the same receptor and array |
| --- | --- |
| B17 | 0.51 |
| B18 | 0.09 |
| B19 | 0.03 |
| B20 | 0.28 |
| B21 | 0.16 |
| B22 | 0.42 |
| B23 | 0.07 |
| B24 | 0.11 |
| B25 | 0.06 |
| B26 | 0.16 |
| B27 | 1.64 |
| B28 | 0.51 |
| B29 | 0.91 |
| B30 | 0.05 |
| B31 | 0.21 |
| B32 | 0.05 |

From publication PMC4072508, “Genome-Wide Prediction and Validation of Peptides That Bind Human Prosurvival Bcl-2 Proteins” (PLoS Computational Biology, 2014)
